Results reported in article PMC10681173.
Values belong to the substance of their own block, whether it stands above or below them.

Experiments:
[1] = target: His6-tagged RMM; assay: SEC; size-exclusion HPLC of TALON-purified samples
[2] = target: SUMO-RMM fused to GFP10 or GFP11 through the long linkers Lk30/27 (SUMO-RMM-GFP10, SUMO-RMM-GFP11); assay: split reporter (BiFC, NanoBiT); tripartite GFP in E. coli BL21(DE3) cells; single vector, POI-10 and POI-11 on a bicistronic mRNA under T7p, GFP1-9 independent; IPTG 10 uM from the start, 37°C; Fmax relative to the RMM reference
[3] = target: RMM BMC-H fused to GFP10 or GFP11 through the long linkers Lk30/27 (RMM-10/RMM-11, reference pair); assay: as above
[4] = target: RMM BMC-H fused to GFP10 or GFP11 through the long linkers Lk30/27 (RMM-10/RMM-11, reference pair); assay: split reporter (BiFC, NanoBiT); tripartite GFP in E. coli BL21(DE3) cells; single vector, all three partners on a single tricistronic mRNA; IPTG 10 uM from the start, 37°C
[5] = target: K26D RMM single mutant fused to GFP10 or GFP11 (sm-RMM-10/11); assay: tripartite GFP (tGFP) reconstitution, in-cell fluorescence Fmax; settings: data collected over 16 h, induction from the culture start, read off a plot
[6] = target: K26D/N29D/A53D RMM triple mutant fused to GFP10 or GFP11 (tm-RMM-10/11); assay: as above; settings: data collected over 16 h, induction from the culture start, read off a plot
[7] = target: N29D/A53D RMM double mutant fused to GFP10 or GFP11 (dm-RMM-10/11); assay: as above; settings: data collected over 16 h, induction from the culture start, read off a plot
[8] = target: RMM BMC-H with GFP10 or GFP11 at the N-terminus (N-ter tagged RMM-10/11); assay: split reporter (BiFC, NanoBiT); tripartite GFP in E. coli BL21(DE3) cells; single vector, POI-10 and POI-11 on a bicistronic mRNA under T7p, GFP1-9 independent; IPTG 10 uM from the start, 37°C; Fmax relative to the RMM reference
[9] = target: SUMO-RMM-His6; assay: SEC; size-exclusion HPLC of TALON-purified samples
[10] = bicistron organization mode, parent: est. 103
[11] = independent-transcript organization mode, Lk30/27 linkers, parent: est. 100
[12] = tricistron organization mode, parent: est. 97

- percent of parent [5, 10]: 107%
- percent of parent [5, 11]: 119%
Substance: RMM BMC-H fused to GFP10 or GFP11 through the long linkers Lk30/27 (RMM-10/RMM-11, reference pair) K26D

- percent of parent [6, 10]: 39%
- percent of parent [6, 11]: 41%
- percent of parent [6, 12]: 40%
Substance: RMM BMC-H fused to GFP10 or GFP11 through the long linkers Lk30/27 (RMM-10/RMM-11, reference pair) K26D; N29D; A53D

- fold drop of fluorescence against C-ter tagged RMM [8]: 3 fold
Substance: RMM BMC-H with GFP10 or GFP11 at the N-terminus (N-ter tagged RMM-10/11) (natural protein)

More lines, now with the values behind:

Substance: His6-tagged RMM (natural protein)
- stoichiometry N [1]: 6

Substance: RMM BMC-H fused to GFP10 or GFP11 through the long linkers Lk30/27 (RMM-10/RMM-11, reference pair) (natural protein)
- Fmax as percent of the RMM pair reference [2]: 115%
- ratio of RMM versus BWI signals [3]: 15 fold
- ratio of RMM versus BWI signals [4]: 2 fold

Substance: RMM BMC-H fused to GFP10 or GFP11 through the long linkers Lk30/27 (RMM-10/RMM-11, reference pair) N29D; A53D
- percent of parent [7, 10]: 102%
- percent of parent [7, 11]: 124%
- percent of parent [7, 12]: 108%

Substance: SUMO-RMM fused to GFP10 or GFP11 through the long linkers Lk30/27 (SUMO-RMM-GFP10, SUMO-RMM-GFP11)
- Fmax as percent of the RMM pair reference [2]: 50 to 65%
- Fmax as percent of the RMM pair reference [3]: 50 to 65%

Substance: SUMO-RMM-His6
- stoichiometry N [9]: 12
